Measurements published in publication PMC12362114.

Legend:
[1] = biological target: 3xFlag-FASN wild type (fatty acid synthase) (UniProt P49327); assay: native gel or EMSA; lysates of transfected Hep3B cells (10 mM Tris/HCl, 1 mM EDTA, 1 mM EGTA, 0.5% Triton X-100, pH 7.5) on a 4-to-10% gradient gel, 50 V overnight at 4 °C, blotted for 3xFlag-FASN; monomers (~250 kDa) and dimers (~500 kDa)
[2] = cell fractionation (membrane vs cytosol), Western blot; settings: glycan lost; control: wild type 3xFlag-FASN
[3] = anti-Flag Western blot, Hep3B lysates; settings: glycan lost; control: wild type 3xFlag-FASN
[4] = BODIPY 493/503 staining, confocal, droplet count; settings: glycan lost; control: wild type 3xFlag-FASN
[5] = cycloheximide chase 0-24 h, protein remaining; settings: glycan lost; control: wild type 3xFlag-FASN

Question: Which stoichiometry N [1] does the source give for “3xFlag-FASN wild type (fatty acid synthase), P49327 1-2511” here?
Answer: 2

Question: For Fatty Acid Synthase (FASN): S595A, which localisation_or_trafficking [2] is on record?
Answer: no change

Question: And the expression_or_secretion [3]?
Answer: decreases

Question: What about the “other: lipid droplet number (activity proxy)” value [4] of the same substance?
Answer: no change

Question: For Fatty Acid Synthase (FASN): T980A, which degradation_or_half_life [5] is on record?
Answer: decreases

Question: What about the localisation_or_trafficking [2] of the same substance?
Answer: decreases

Question: What about the expression_or_secretion [3] of the same substance?
Answer: decreases
